# Source: US7537795B2, “Transdermal drug delivery devices having coated microprotrusions” (Alza Corporation, priority 2000, dated 2009)
# B1: ovalbumin: a 45,000 Dalton polypeptide containing an oligosaccharide side chain; model for large pharmacological agents; fluorescein/FITC-tagged in delivery studies (protein, UniProt P01012 2-386, looked up)
# Ovalbumin: GSIGAASMEFCFDVFKELKVHHANENIFYCPIAIMSALAMVYLGAKDSTRTQINKVVRFDKLPGFGDSIEAQCGTSVNVHSSLRDILNQITKPNDVYSFSLASRLYAEERYPILPEYLQCVKELYRGGLEPINFQTAADQARELINSWVESQTNGIIRNVLQPSSVDSQTAMVLVNAIVFKGLWEKAFKDEDTQAMPFRVTEQESKPVQMMYQIGLFRVASMASEKMKILELPFASGTMSMLVLLPDEVSGLEQLESIINFEKLTEWTSSNVMEERKIKVYLPRMKMEEKYNLTSVLMAMGITDVFSSSANLSGISSAESLKISQAVHAAHAEINEAGREVVGSAEAGVDAASVSEEFRADHPFLFCIKHIATNAVLFFGRCVSP
# modifications: fluorescein/FITC label
# notes: a 45,000 Dalton polypeptide containing an oligosaccharide side chain; model for large pharmacological agents; fluorescein/FITC-tagged in delivery studies
# Experiments:
# [1] = Kinetics of drug absorption from hGH tip-coated microprotrusion array systems, plasma hGH by ELISA; assay type: in vivo, hairless guinea pigs
# Protocol: However, on the microprotrusion itself, the coating was found unevenly distributed.
# Systems remained on the skin for 5 seconds (n=3) or 5 minutes (n=5). A group of animals (n=5) received a subcutaneous injection of 10 μg hGH. Blood samples were collected at time intervals for plasma hGH determination by ELISA. The hGH dose delivered was extrapolated based on an area under the curve (AUC) calculation compared to IV administration of hGH. […] On average, 5 μg of hGH was delivered in each animal, which accounts for approximately 50% of the coated dose.
# [2] = guinea pig, in vivo
# [3] = Ovalbumin delivery from tip-coated microprotrusion array systems, skin biopsy fluorimetry; assay type: in vivo, euthanized hairless guinea pigs
# Protocol: The coating was limited to the first 150 μm of the microprojection.
# The applied systems comprised a coated microprotrusion array, adhered to the center of a LDPE backing with an adhesive (7 cm^2 disc). […] At the end of the wearing time, the system was removed and the skin wiped clean of any residual drug. The total amount of ovalbumin delivered in the skin during these time intervals was determined by dissolving a 8 mm skin biopsy in hyamine hydroxide (10% in methanol). Quantitation was performed by fluorimetry. […] Close to 100% of the dose had been delivered after 1 hour application time (solid bar).
# [4] = Ovalbumin absorption into the skin from dip-coated microprotrusion devices, skin biopsy fluorimetry; assay type: in vivo, hairless guinea pigs; conditions: dip-coated device, 8 mm skin biopsy
# Protocol: The feasibility of coating the microprotrusion devices with ovalbumin was evaluated. A coating solution comprising 200 mg/ml of fluorescein-tagged ovalbumin in water was prepared.
# Microprotrusion application was performed using a spring loaded applicator which impacted the system against the animal's skin. […] The average total amount of ovalbumin delivered into the skin (Mavg) during these time intervals was determined by taking an 8 mm skin biopsy at the application site. The skin biopsy sample was then dissolved in hyamine hydroxide (diisobutylcresoxyethoxyethyl) dimethyl) benzylammonium hydroxide, 1 M in ethanol, sold by J. T. Baker (NJ, USA) and the amount of ovalbumin present was determined by fluorimetry. […] Although ovalbumin is not a pharmacological agent used in therapeutics, it is a good model for large potent pharmacologically active agents such as follicle stimulating hormone and erythropoietin.
# [5] = Ovalbumin delivery from microprotrusion systems coated with 200, 50 and 10 mg/ml solutions; assay type: in vivo, hairless guinea pigs; conditions: coating solutions 200, 50 and 10 mg/ml, device removed immediately after application
# Protocol: An experiment similar to that described in Example 1 was performed in the HGPs using the identical microprotrusion systems which were coated with aqueous ovalbumin solutions having ovalbumin concentrations of 200, 50, and 10 mg/ml ovalbumin. In all groups the microprotrusion device was removed immediately after application. Application and analysis were performed identically to that described in Example 1.
molecule,measurement,setting,value
"hGH: Human growth hormone, model for cytokines, particularly interferon",bioavailability,[1]; subcutaneous administration of 10 μg hGH,65%
same,"hGH delivery, 5 seconds versus 5 minutes wearing times",[1]; tip-coated array,the same
same,hGH delivered as share of the coated dose,"[1]; tip-coated array, 5 seconds or 5 minutes wear",approximately 50%
same,"hGH delivered in each animal, on average","[1]; tip-coated array, 5 seconds or 5 minutes wear, extrapolated from AUC compared to IV",5 µg
NC(=O)CC[C@@H]1NC(=O)[C@H](Cc2ccccc2)NC(=O)[C@H](Cc2ccc(O)cc2)NC(=O)CCSSC[C@@H](C(=O)N2CCC[C@H]2C(=O)N[C@H](CCCN=C(N)N)C(=O)NCC(N)=O)NC(=O)[C@H](CC(N)=O)NC1=O [desmopressin],Additional drug absorbed after the first two hours,[2],no additional amount of drug was absorbed
same,amount of desmopressin delivered versus Group B,[2],did not increase significantly
same,average delivery of desmopressin,[2],about 5 μg
same,average desmopressin delivered,[2],18 µg
B1,ovalbumin dose delivered,[3]; 5 seconds wearing time,more than 80%
same,ovalbumin dose delivered,[3]; 1 hour application time,~100%
same,ovalbumin delivered intracutaneously,[4]; 5 second piercing,about 25 μg
same,ovalbumin delivered intracutaneously,[4]; 1 hour application period,up to 80 μg
same,delivery of ovalbumin as a function of amount coated,[5],could be controlled by controlling the amounts coated on the microprotrusions
